The values that follow come from patent US20080118529.

Data set [1] concerns the target human Aβ(1-40) Dutch type.
Data set [2] has as its target T1, human fibrin α-chain (148-160) amyloid fragment with Lys157Ala mutation (FP13).
T1 chain: KRLEVDIDIAIRS

B1: human factor XII from plasma (Calbiochem, #233490) (protein)
chain: IPPWEAPKEHKYKAEEHTVVLTVTGEPCHFPFQYHRQLYHKCTHKGRPGPQPWCATTPNFDQDQRWGYCLEPKKVKDHCSKHSPCQKGGTCVNMPSGPHCLCPQHLTGNHCQKEKCFEPQLLRFFHKNEIWYRTEQAAVARCQCKGPDAHCQRLASQACRTNPCLHGGRCLEVEGHRLCHCPVGYTGAFCDVDTKASCYDGRGLSYRGLARTTLSGAPCQPWASEATYRNVTAEQARNWGLGGHAFCRNPDNDIRPWCFVLNRDRLSWEYCDLAQCQTPTQAAPPTPVSPRLHVPLMPAQPAPPKPQPTTRTPPQSQTPGALPAKREQPPSLTRNGPLSCGQRLRKSLSSMTRVVGGLVALRGAHPYIAALYWGHSFCAGSLIAPCWVLTAAHCLQDRPAPEDLTVVLGQERRNHSCEPCQTLAVRSYRLHEAFSPVSYQHDLALLRLQEDADGSCALLSPYVQPVCLPSGAARPSETTLCQVAGWGHQFEGAEEYASFLQEAQVPFLSLERCSAPDVHGSSILPGMLCAGFLEGGTDACQGDSGGPLVCEDQAAERRLTLQGIISWGSGCGDRNKPGVYTDVAYYLAWIREHTVS
For B1, in data set [1], the “activation of factor XII, detected by the conversion of Chromozym-PK upon formation of kallikrein from prekallikrein” value is “Like kaolin, amyloid-like peptide aggregates of FP13 and Aβ stimulate the activation of factor XII”; the “auto-activation of purified factor XII, substrate S-2222” value is on record as “All three amyloid-like aggregates are able to induce factor XII auto-activation ... the potency of the Aβ(1-40) E22Q is somewhat lower”. In data set [2], the “activation of factor XII, detected by the conversion of Chromozym-PK upon formation of kallikrein from prekallikrein” value was “Like kaolin, amyloid-like peptide aggregates of FP13 and Aβ stimulate the activation of factor XII”.
